Data from article PMC2670278 (Nature, 2009).

Molecular target: factor H CCPs 6 & 7 (human, UniProt P08603, 402^His)
Test: SPR

B1: factor H binding protein, construct comprising regions A, B and C but lacking the lipid anchor (natural protein)
chain: GGVAADIGAGLADALTAPLDHKDKGLQSLTLDQSVRKNEKLKLAAQGAEKTYGNGDSLNTGKLKNDKVSRFDFIRQIEVDGQLITLESGEFQVYKQSHSALTAFQTEQIQDSEHSGKMVAKRQFRIGDIAGEHTSFDKLPEGGRATYRGTAFGSDDAGGKLTYTIDFAAKQGNGKIEHLKSPELNVDLAAADIKPDGKRHAVISGSVLYNQAEKGSYSLGIFGGKAQEVAGSAEVKTVNGIRHIGLAAKQ
Kd: ~5 nM
